Results as given in paper PMC7844570.

Biological target: L-lysine α-oxidase precursor from Trichoderma viride (Trichoderma viride)
Test: crystal structure; prLysOX crystals by sitting-drop vapor diffusion at 20 °C, 0.1 M Tris-HCl pH 8.0-9.0, 2-2.1 M ammonium dihydrogen phosphate; space group C222(1); one molecule in the asymmetric unit, dimer formed by crystallographic two-fold symmetry; 1.97 Å

stoichiometry N: 2
Substance: L-lysine α-oxidase precursor from Trichoderma viride (enzyme)
